# According to paper PMC11199599, “SNM1A is crucial for efficient repair of complex DNA breaks in human cells” (Nature Communications, 2024):
# B1: GST-tagged SNM1A peptide spanning the PBZ and UBZ motifs (GST-PBZ-UBZ) (domain or fragment, human)
# chain: RPVYDGYCPNCQMPFSSLIGQTPRWHVFECLDSPPRSETECPDGLLCTSTIPFHYKRYTHFLLAQSRAG
# notes: SNM1A (DCLRE1A), human, stretch spanning the UBZ and PBZ motifs; numbering as for NP_001258745.1; Cloned into pET-41b; also called UBZ/PBZ peptide; PBZ-plus-UBZ; not shown: GST, N-terminal, kept
# B2: GST-tagged SNM1A PIP box peptide (GST-PIP) (domain or fragment, human)
# chain: ARHPSTKVMKQMDIGVYFGLPPKRKEEKLL
# notes: SNM1A (DCLRE1A), human, stretch spanning the PIP box; numbering as for NP_001258745.1; Cloned into pET-41b (MfeI/SalI); also called wildtype PIP box peptide; not shown: GST, N-terminal, kept
# What was measured:
# [1] = molecular target: T1, Lysine 164 monoubiquitinated human PCNA (PCNA^ub) (human | , UniProt P12004 1-261; P0CG48 1-76, monoubiquitinated at lysine 164 | C-terminus joined to lysine 164 of PCNA); assay: pull-down; GST-SNM1A peptides held on glutathione-agarose beads, washed with PBS with 250 mM to 1 M salt; 150 ng purified PCNA or PCNA^ub added, tumbled at 4 °C for 1 h, washed as before; immunoblot for PCNA, PCNA^ub, GST; details: both partners purified
# T1 construct: PCNA (proliferating cell nuclear antigen), human, carrying one ubiquitin on lysine 164; ubiquitin, conjugated in vitro to lysine 164 of PCNA; also called ubiquitinated PCNA; lysine-164 monoubiquitinated PCNA
# [2] = molecular target: T2, Human PCNA (human, UniProt P12004 1-261); assay: as above; details: both partners purified
# T2 construct: PCNA (proliferating cell nuclear antigen), human; also called native PCNA; purified PCNA; source: E. coli BL21, purified (IMAC, gel filtration on Superdex 200)
# T2 sequence (P12004 whole entry): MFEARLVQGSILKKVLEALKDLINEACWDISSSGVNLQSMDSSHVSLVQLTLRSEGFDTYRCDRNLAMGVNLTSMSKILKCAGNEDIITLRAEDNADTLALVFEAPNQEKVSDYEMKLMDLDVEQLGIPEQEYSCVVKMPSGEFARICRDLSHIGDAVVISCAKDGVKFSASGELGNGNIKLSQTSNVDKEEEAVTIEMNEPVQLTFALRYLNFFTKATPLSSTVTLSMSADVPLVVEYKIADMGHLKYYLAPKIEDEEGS
binder,measurement,setting,value
B1,binding result,[1],binds
B2,binding result,[2],binds
same,binding result,[1],binds
